# Results: paper PMC10170298, “Differential regulation of ATP hydrolysis of RIG-I-like receptors by transactivation response RNA-binding protein”
# T1: TRBP WT (nonphosphorylated) (UniProt Q15633 1-366)
# T1 sequence: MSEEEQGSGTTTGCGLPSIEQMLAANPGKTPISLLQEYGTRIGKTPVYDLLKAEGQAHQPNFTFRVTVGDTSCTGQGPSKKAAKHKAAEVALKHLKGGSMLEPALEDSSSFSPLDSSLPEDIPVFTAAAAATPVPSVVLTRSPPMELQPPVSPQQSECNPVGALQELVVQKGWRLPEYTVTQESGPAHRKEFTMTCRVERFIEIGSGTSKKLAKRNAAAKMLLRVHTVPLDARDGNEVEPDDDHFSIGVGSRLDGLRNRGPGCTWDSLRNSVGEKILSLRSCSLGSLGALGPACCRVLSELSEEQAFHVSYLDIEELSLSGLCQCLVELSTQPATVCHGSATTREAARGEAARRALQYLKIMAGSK
# Target: T1, TRBP WT (nonphosphorylated)
# Test: EMSA; 20 mM HEPES pH 7.5, 150 mM NaCl, 1.5 mM MgCl2, 2 mM DTT, 30 C, 30 min; dsRNA 60 nM, TRBP 0-400 pmol; 5% acrylamide gel
# Conditions: protein: recombinant; label: none (SYBR Gold stain); blunt
binder,measurement,value
TMEV 45-mer dsRNA (dsRNA) RNA 1: UUACUAUUGACACUAUGGCUUGCAAACAUGGAUACCCAGAUGUGU RNA 2: ACACAUCUGGGUAUCCAUGUUUGCAAGCCAUAGUGUCAAUAGUAA,binding result,binds
